Assay [1] addresses limd1_mouse Limd1 (UniProt Q9QXD8).
Assay [2] addresses ajuba_mouse Ajuba (UniProt Q91XC0).

Sequence of limd1_mouse Limd1 (Q9QXD8 whole entry): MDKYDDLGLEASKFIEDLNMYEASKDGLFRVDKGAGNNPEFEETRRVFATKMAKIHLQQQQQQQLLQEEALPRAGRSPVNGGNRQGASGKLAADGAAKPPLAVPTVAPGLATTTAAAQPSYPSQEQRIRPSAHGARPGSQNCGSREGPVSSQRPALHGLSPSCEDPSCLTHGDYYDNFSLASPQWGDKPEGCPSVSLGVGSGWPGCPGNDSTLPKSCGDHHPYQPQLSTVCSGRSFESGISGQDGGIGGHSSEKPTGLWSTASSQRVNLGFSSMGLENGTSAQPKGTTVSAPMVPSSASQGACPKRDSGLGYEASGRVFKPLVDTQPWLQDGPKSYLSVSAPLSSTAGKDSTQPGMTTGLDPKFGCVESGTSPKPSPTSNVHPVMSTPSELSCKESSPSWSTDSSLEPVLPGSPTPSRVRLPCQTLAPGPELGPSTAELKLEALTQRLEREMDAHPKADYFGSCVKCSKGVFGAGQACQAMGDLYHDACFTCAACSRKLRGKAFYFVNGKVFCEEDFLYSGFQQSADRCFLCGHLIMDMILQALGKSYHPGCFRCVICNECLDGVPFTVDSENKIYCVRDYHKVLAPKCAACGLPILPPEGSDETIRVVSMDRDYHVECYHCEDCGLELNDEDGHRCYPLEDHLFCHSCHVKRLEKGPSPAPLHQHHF

For “Zinc finger protein Gfi-1 (Homo sapiens), Q99684 F5A”, the “effect of a mutation on the interaction” value in assay [1] and in assay [2] was “disrupting interaction” each time.

Regarding “Zinc finger protein Gfi-1 (Homo sapiens), Q99684 F5A;L6A;V7A”, the “effect of a mutation on the interaction” value in assay [1] and in assay [2] was “disrupting interaction” in each case.

“Zinc finger protein Gfi-1 (Homo sapiens), Q99684 K10A;K11A”: the “effect of a mutation on the interaction” value in assay [1] and in assay [2] was “disrupting interaction” each time.
